From patent publication CN115710309A (INST PASTEUR SHANGHAI CAS, dated 2023) come the findings set out here.

What all share (assay): cell-based or functional assay
The target of experiment [1] is SARS-CoV-2 B.1.617.1突变株S蛋白 (假病毒) (SARS-CoV-2, UniProt P0DTC2 14-1273).
Experiment [2] addresses SARS-CoV-2 B.1.351突变株S蛋白 (假病毒) (SARS-CoV-2, UniProt P0DTC2 14-1273).
The target of experiment [3] is SARS-CoV-2 B.1.617.2突变株S蛋白 (假病毒) (SARS-CoV-2, UniProt P0DTC2 14-1273).

B1: 单抗8D3 (antibody, V domains shown)
VH: EVQLQQSGPELVKPGASVKISCKTSGYTFTEYTMYWVKQSHGKSLEWIGGINPNIGDTSYNQNFKGKATLTVDRSSSTAYMELRSLTSEDSAVYYCARDGYPYYYALDHWGQGTSVTVSS
VL: DIVMTQSQKFMSTSVGDRVSVTCKASQNVGTNVAWYQQKPGQSPKALIYSTSYRYSGVPDRFTGSGSGTDFTLTISNVQSEDLAEYFCQQYNSYPYTFGGGTKLEIKR
Turning to B1, the “假病毒中和 IC50” value in experiment [1] was 2 ng/mL; in experiment [2], 6 ng/mL; in experiment [3], 8 ng/mL.

B2: 单抗2G3 (antibody)
heavy: QVQLQQPGAELVKPGASVKMSCKASGYTFTTYTIHWLRQTPGQGLEWIGAIYPGIGDTSYNQSFKGKATLTADKSSSTAYMQLSSLTSEDSAVYYCARDGNYAPFTYWGQGTLVTVSAAKTTPPSVYPLAPGSAAQTNSMVTLGCLVKGYFPEPVTVTWNSGSLSSGVHTFPAVLQSDLYTLSSSVTVPSSTWPSETVTCNVAHPASSTKVDKKIVPRDCGCKPCICTVPEVSSVFIFPPKPKDVLTITLTPKVTCVVVDISKDDPEVQFSWFVDDVEVHTAQTQPREEQFNSTFRSVSELPIMHQDWLNGKEFKCRVNSAAFPAPIEKTISKTKGRPKAPQVYTIPPPKEQMAKDKVSLTCMITDFFPEDITVEWQWNGQPAENYKNTQPIMDTDGSYFVYSKLNVQKSNWEAGNTFTCSVLHEGLHNHHTEKSLSHSPGK
light: DIVMSQSPSSLAVSVGEKVTMSCKSSQSLLYSNNQKNYLAWYQQKPGQSPKLLIYWTSTRESGVPDRFTGSGSGTDFTLTINSVKAEDLAVYYCQQYYRYPLTVGAGTKLELKRADAAPTVSIFPPSSEQLTSGGASVVCFLNNFYPKDINVKWKIDGSERQNGVLNSWTDQDSKDSTYSMSSTLTLTKDEYERHNSYTCEATHKTSTSPIVKSFNRNEC
Regarding B2, the “假病毒中和 IC50” value in experiment [1] was 1 ng/mL; in experiment [2], 4 ng/mL; in experiment [3], 84 ng/mL.
